What all share (assay): fluorescence polarization
One data set addresses T1, RBM45 RRM1-2 WT (Homo sapiens, UniProt Q8IUH3 23-202).
T1 sequence: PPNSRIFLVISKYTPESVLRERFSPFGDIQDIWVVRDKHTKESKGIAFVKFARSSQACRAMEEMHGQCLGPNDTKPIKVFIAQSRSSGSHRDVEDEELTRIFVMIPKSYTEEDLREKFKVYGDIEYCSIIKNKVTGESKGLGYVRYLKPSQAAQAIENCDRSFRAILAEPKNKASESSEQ

For the next data set, the target named is T2, RRM1 analog K100A (Homo sapiens, UniProt Q8IUH3 23-202, K100A;F124A;Y165A).
T2 sequence: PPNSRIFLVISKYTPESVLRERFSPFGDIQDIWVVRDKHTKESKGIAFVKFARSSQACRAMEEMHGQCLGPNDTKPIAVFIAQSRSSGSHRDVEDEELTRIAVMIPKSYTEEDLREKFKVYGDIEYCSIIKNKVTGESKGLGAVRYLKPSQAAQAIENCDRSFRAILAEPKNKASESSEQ

The target in another data set is T3, RRM2 analog F124A (Homo sapiens, UniProt Q8IUH3 23-202, F29A;F70A;F124A).
T3 sequence: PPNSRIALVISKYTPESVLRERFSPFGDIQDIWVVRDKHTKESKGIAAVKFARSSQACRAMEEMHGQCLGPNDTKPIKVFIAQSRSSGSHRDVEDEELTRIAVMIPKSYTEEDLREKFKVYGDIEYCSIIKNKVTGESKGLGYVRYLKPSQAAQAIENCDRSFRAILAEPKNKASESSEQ

A further data set concerns the target T4, RRM2 analog R122A (Homo sapiens, UniProt Q8IUH3 23-202, F29A;F70A;R122A).
T4 sequence: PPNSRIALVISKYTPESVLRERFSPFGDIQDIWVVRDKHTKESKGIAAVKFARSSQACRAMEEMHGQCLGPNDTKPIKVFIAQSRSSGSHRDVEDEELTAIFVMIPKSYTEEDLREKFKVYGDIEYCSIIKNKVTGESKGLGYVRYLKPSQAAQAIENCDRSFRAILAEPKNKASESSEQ

For the next data set, the target named is T5, RRM1 analog F29A (Homo sapiens, UniProt Q8IUH3 23-202, F29A;F124A;Y165A).
T5 sequence: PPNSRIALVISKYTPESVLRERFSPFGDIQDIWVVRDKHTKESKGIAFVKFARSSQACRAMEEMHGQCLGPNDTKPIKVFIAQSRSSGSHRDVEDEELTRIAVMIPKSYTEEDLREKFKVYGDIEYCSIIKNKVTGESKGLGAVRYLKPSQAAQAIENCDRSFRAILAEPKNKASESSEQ

Data set [1] concerns the target T6, RBM45 RRM1-2 F29A/F70A (RRM2 analog) (Homo sapiens, UniProt Q8IUH3 23-202, F29A;F70A).
T6 sequence: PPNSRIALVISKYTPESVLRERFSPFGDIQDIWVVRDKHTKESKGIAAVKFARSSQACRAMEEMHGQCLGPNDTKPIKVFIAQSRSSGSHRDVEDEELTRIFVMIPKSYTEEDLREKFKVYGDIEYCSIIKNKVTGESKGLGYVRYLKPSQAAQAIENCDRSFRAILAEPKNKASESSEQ

B1: GGACGG RNA (ssRNA)
RNA: GGACGG
As a reminder, the Kd is the constant that tells how readily two partners part at equilibrium. Read a low Kd as tighter binding. On to B1, for which the Kd was 0.457 ± 0.053 µM in the data set with RBM45 RRM1-2 WT; 4.59 µM in the data set with RRM1 analog K100A; 15.6 µM with RRM2 analog F124A; 18.7 µM in the data set with RRM2 analog R122A; 7.38 µM in the data set with RRM1 analog F29A; 1.48 ± 0.11 µM in data set [1].
